{"source": "paper PMC2172933", "molecular_target": "neural cell adhesion molecule 140 (NCAM140), rat, expressed in CHO cells (rat) (UniProt P13596)", "sequence (P13596 20-858)": "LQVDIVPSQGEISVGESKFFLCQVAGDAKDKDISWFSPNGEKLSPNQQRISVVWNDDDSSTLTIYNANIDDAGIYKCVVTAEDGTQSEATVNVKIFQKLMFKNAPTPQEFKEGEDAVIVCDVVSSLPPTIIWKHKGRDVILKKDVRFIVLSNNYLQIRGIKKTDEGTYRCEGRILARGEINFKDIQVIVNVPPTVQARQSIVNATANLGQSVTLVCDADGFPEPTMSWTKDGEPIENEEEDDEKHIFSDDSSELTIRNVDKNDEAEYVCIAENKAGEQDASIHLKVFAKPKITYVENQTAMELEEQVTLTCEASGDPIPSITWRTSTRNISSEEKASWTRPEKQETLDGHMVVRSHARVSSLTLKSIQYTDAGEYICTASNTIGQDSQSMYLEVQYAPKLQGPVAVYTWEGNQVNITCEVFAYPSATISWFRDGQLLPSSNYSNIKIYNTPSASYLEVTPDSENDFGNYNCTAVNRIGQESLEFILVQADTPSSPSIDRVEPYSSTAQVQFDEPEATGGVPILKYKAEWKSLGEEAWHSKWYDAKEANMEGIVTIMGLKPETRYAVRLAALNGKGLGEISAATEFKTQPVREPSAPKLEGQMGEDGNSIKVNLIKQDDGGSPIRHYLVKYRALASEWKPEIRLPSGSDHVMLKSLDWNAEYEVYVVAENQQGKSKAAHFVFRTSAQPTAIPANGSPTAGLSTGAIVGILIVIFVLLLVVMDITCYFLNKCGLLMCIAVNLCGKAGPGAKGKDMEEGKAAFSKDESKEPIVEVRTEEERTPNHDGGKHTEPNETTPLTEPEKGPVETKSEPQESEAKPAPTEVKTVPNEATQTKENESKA", "experiment": "co-IP"}
{"substance": "βI spectrin, endogenous in CHO cells, A0A9J7GYU9 1-2329", "values": [{"measurement": "percent of the amount of spectrin that coprecipitated with NCAM180 (set to 100%)", "value": 69.8, "unit": "%"}]}
